Test results: US8426179B2, “Synthetic peptide and peptide conjugates and related tissue coupling methods via transglutaminase enzyme” (priority 2007, dated 2013)

Experiments:
[1] = Hydrolysis of the hydrocortisone prodrugs in solution (buffers); type: physicochemical; details: Buffer 1, 4° C.
Experimental: This solution also contained 2 mM 6α-methyl prednisolone as an internal standard. The samples were then stored at −20° C. until analyzed with RP-HPLC and eluted with a linear gradient of 24-55% acetonitrile in water with 0.1% TFA. The amount of hydrocortisone hydrolyzed from the prodrug was determined by comparing its peak area to that of 6α-methyl prednisolone. […] Thirty microliter samples were collected at 10, 20, 30, and 60 minutes and analyzed as previously described.

[2] = test system: articular surface of cartilage; assay: Coupling of hydrocortisone prodrugs to the articular surface of cartilage via tTG; type: biochemical, bovine; details: 1.0 mM prodrug with tTG, immunohistochemistry and quantification
Experimental: Modified tissue samples were immersed in tissue freezing media and frozen at −80° C. until use. Tissue slices (25 μm thick) were cut using a cryostat (Microm HM505N, Carl Zeiss) and the freezing media was removed with 3 washes of Buffer 1. Blocking was performed with 4% goat serum in Buffer 1 (blocking buffer) for 1 hour at room temperature. The tissue sections were then incubated with 10 μg/mL mouse anti-hydrocortisone antibody for 1.5 h in the blocking buffer at room temperature, rinsed 3 times with Buffer 1 for 5 minutes each, and then incubated with fluorescein conjugated goat anti-mouse antibody (1/200) in blocking buffer for 1 hour. Samples were rinsed again with Buffer 1 and then imaged using a Leica epifluorescent microscope (λex=495 nm, λem=520 nm for fluorescein) and a SPOT RT digital camera (Diagnostic Instruments, Sterling Heights, Mich.).

Substance: hydrocortisone-GFKG-PEG [TRIP-PC]
- T50% of hydrolysis [1]: 57.8 h
- bound hydrocortisone, TRIP-C compared with TRIP-PC [2]: no detectable difference in bound hydrocortisone
